Experiment [1] concerns the target PacII S subunit (HsdS), full length, C-terminal 6His tag (assembly analysis) (Pseudomonas alcaligenes NEB585). Description: SEC; only two subunits co-expressed in E. coli (M1 with S, or M2 with S), purified by the same strategy as the wild-type PacII MTase; SEC. For orientation: SEC sorts molecules by how far they enter the pores of the column.
Experiment [2] shares this target. Description: SEC; S subunit alone on size-exclusion chromatography; monomer-dimer equilibrium.

With “PacII M1 subunit (HsdM1), full length, construct without the 6His-SUMO tag (assembly analysis) (natural protein)”, in experiment [1], the stoichiometry N came out at 1 M1 per S.

For “PacII S subunit (HsdS), full length, C-terminal 6His tag (assembly analysis) (natural protein)”, the stoichiometry N in experiment [2] worked out at 2.

As usually defined, the stoichiometry N is a count of units in the complex or per binding partner.
